Reference: patent US7288256B1, “T cell epitopes of the major allergens from dermatophagoides (house dust mite)” (Merck Patent GmbH, priority 1991, dated 2007)
Each block holds one molecule with its values, some of them ahead of it. Residues, ends and D or L forms follow the SMILES beside them.

Columns and labels:
[1] = pH-solubility profile of candidate peptides (HPLC of filtrate); assay type: physicochemical
Method: Stock solution A: 0.66 g […] of monobasic sodium phosphate monohydrate U.S.P. and 50 mg EDTA disodium dihydrate, U.S.P. were dissolved in 100 mL of WFI. The solution was filtered through a 0.2 micron filter
Stock solution B: 0.71 g […] of dibasic sodium phosphate U.S.P. were disolved in 100 ml WFI. The solution was filtered through a 0.2 micron filter.
Dispersions A and B were sonicated for 2 minutes for good homogeneity. A small volume was pipetted from each dispersion into a labeled eppendoff vial according to the following volume ratio:
The resultant solutions/suspensions were stored in the dark at about 22° C.±2 for 24 hours without agitation. The solutions were filtered and filtrates were analyzed for pH and peptide concentration.

[2] = pH-stability profile of candidate peptides (percent degradant peak area by HPLC)
Method: The concentration of filtered peptide solutions was determined by HPLC analysis. In this experiment, the solubility of peptide at each pH is defined as the amount of peptide remaining in solution after filtration through a membrane filter having a 0.2 micrometer pore size. The extent of degradation of peptides was estimated by calculating the percent of total degradant peak area over the total peak area.

[3] = test system: human IgE; test: Direct binding ELISA of IgE to mite allergen proteins and peptides (Examples XIII, XV)
Method: Corning assay plates (#25882-96) were coated with 5 μg/ml of each coating antigen listed in FIGS. 19, 20 and 21 at […] and incubated overnight at 4° C. The coating antigens were removed and the wells are blocked with 0.5% gelatin in PBS, 300 μl/well for 2 hours at room temperature. […] Louis, Mo.) and 100 μl/well a\was added and incubated overnight at 4° C. (plasma dilutions were tested in duplicate). The second antibody (biotinylated goat anti-Human IgE, 1:1000, Kirkegaard & Perry Laboratories Inc, Gaithersburg, Md.), was added at 100 μl/well for one hour at room temperature. This solution was removed and streptavidin-HRPO, 1:10000, (Southern Biotechnology Associates, Inc., Birmingham, Ala.) was then added at 100 μl/well for one hour at room temperature (all wells are washed three times with PBS-Tween between each incubation step). TMB Membrane Peroxidase Substrate system (Kirkegaard & Perry Laboratories) was freshly miced, and added at […]. The color was allowed to develop for 2-5 minutes. The reaction was stopped by the addition of […] of 1M phosphoric acid. Plates were read on a Microplate IL310 Autoreader (Biotech Instruments, Winooski, Vt.) with a 450 nm filter. The absorbance levels of duplicate wells were averaged. The order of coating antigens listed vertically in these figure legends corresponds in […] from left to right to the coating antigens listed for each histogram.

[4] = test system: PBMC from mite-allergic patient; test: Primary PBMC proliferation (3H-thymidine) to Der p I/Der p II proteins and peptides, Example IV; assay type: cell-based, human; conditions: for CPM ± S.D.: 7 days culture; for S.I.: CPM with antigen / CPM medium only
Method: Peripheral blood mononuclear cells (PBMC) were purified by Ficoll-Hypaque centrifugation of a peripheral blood specimen from mite-allergic patient and were assayed for proliferation in response to various antigens, i.e., affinity-purified Der p I, affinity purified […], various Der p I and Der p II peptides. For assay, 5×10^4 PBMC were cultured in triplicate microwells for 7 days at 37° C. in the presence of various concentrations of antigen in 200 μl RPMI-1640 containing 5% human AB serum. Each well then received 1 μCi tritiated thymidine for 16 hours. The counts incorporated were collected onto glass fiber filters and processed for liquid scintillation counting. […] The CPM+/− standard deviation are shown. The stimulation index of each response (S.I.) is the ratio of the ^3H-thymidine CPM incorporated by the cells in response to antigen divided by the ^3H-thymidine CPM incorporated by cells in medium only. […] Thus, these peptides contain Der p I or Der p II T cell epitopes recognized by T cells from this particular allergic patient.

[5] = pooled human plasma from 20 mite skin test positive patients, coating antigen 5 μg/ml, FIGS. 19-21
[6] = plasma from 19 mite-allergic patients and a pool of 18 additional patients, Example XV

Molecule: CC[C@H](C)[C@H](NC(=O)CNC(=O)[C@H](CCC(=O)O)NC(=O)[C@@H](N)CC(=O)O)C(=O)N[C@@H](CCCCN)C(=O)N[C@@H](CC(=O)O)C(=O)N[C@@H](CC(C)C)C(=O)N[C@@H](CC(=O)O)C(=O)N[C@@H](C)C(=O)N[C@@H](Cc1ccccc1)C(=O)N[C@@H](CCCNC(=N)N)C(=O)N[C@@H](Cc1c[nH]cn1)C(=O)N[C@@H](Cc1ccc(O)cc1)C(=O)N[C@@H](CC(=O)O)C(=O)NCC(=O)N[C@@H](CCCNC(=N)N)C(=O)N[C@H](C(=O)N[C@H](C(=O)N[C@H](C(=O)N[C@@H](CCC(N)=O)C(=O)N[C@@H](CCCNC(=N)N)C(=O)N[C@@H](CC(=O)O)C(=O)N[C@@H](CC(N)=O)C(=O)NCC(=O)N[C@@H](Cc1ccc(O)cc1)C(=O)N[C@@H](CCC(=O)O)C(=O)O)[C@@H](C)CC)[C@@H](C)CC)[C@@H](C)O [DP I-26.6] (H-DEGIKDLDAFRHYDGRTIIQRDNGYE-OH; N-terminus and C-terminus assumed)
solubility thermodynamic at 24 h ([1]; at a pH in the pH range of pH 6 to pH 8, 50 mM sodium phosphate, about 22° C., 24 hours): > 3000 µg/mL
solution stability in equal concentration combination ([2]; 3, 2 and 1 mg/ml per peptide, 24 hours at about 5° C. and about 22° C., common window within pH 6 to pH 8): acceptable solution stability

Molecule: CC[C@H](C)[C@H](NC(=O)[C@H](CO)NC(=O)[C@H](C)NC(=O)[C@H](CCCCN)NC(=O)[C@@H](NC(=O)[C@H](CCC(=O)O)NC(=O)[C@@H](NC(=O)[C@H](CCCCN)NC(=O)[C@H](C)NC(=O)[C@@H](NC(=O)[C@H](CCCCN)NC(=O)[C@@H](NC(=O)[C@H](CC(N)=O)NC(=O)[C@H](CCC(N)=O)NC(=O)[C@H](CC(N)=O)NC(=O)[C@H](C)NC(=O)[C@H](CCC(=O)O)NC(=O)[C@H](Cc1ccccc1)NC(=O)[C@@H](NC(=O)[C@H](C)NC(=O)[C@H](CCC(=O)O)NC(=O)[C@H](CC(C)C)NC(=O)[C@H](CCC(N)=O)NC(=O)[C@H](CCCCN)NC(=O)[C@@H](N)CC(=O)O)C(C)C)[C@@H](C)O)[C@@H](C)O)[C@@H](C)CC)[C@@H](C)CC)C(=O)N[C@@H](CC(=O)O)C(=O)NCC(=O)N[C@@H](CC(C)C)C(=O)N[C@@H](CCC(=O)O)C(=O)N[C@H](C(=O)N[C@@H](CC(=O)O)C(=O)O)C(C)C [DP II-22.6] (H-DKQLEAVFEANQNTKTAKIEIKASIDGLEVD-OH)
solubility (in words, against the superior solubility standard of 3 mg/ml) ([1]; development of DPII-22.14 from DpII-22): solubility did not reach the standard
stability (in words) ([2]; single peptide, aqueous buffer, pH 6 to pH 8, development of DPII-22.14): stability improved substantially

B1: biochemically purified Der f II: Group II protein allergen of Dermatophagoides farinae, immunoaffinity purified native form (protein)
chain: DQVDVKDCANNEIKKVMVDGCHGSDPCIIHRGKPFTLEALFDANQNTKTAKTEIKASLDGLEIDVPGIDTNACHFMKCPLVKGQQYDAKYTWNVPKIAPKSENVVVTVKLVGDNGVLACAIATHAKIRD
IgE binding in direct ELISA [3, 5]: binding

B4: Der p I: Group I protein allergen of Dermatophagoides pteronyssinus, immunoaffinity purified native form (protein)
chain: TNACSINGNAPAEIDLRQMRTVTPIRMQGGCGSCWAFSGVAATESAYLAHRNQSLDLAEQELVDCASQHGCHGDTIPRGIEYIQHNGVVQESYYRYVAREQSCRRPNAQRFGISNYCQIYPPNANKIREALAQTHSAIAVIIGIKDLDAFRHYDGRTIIQRDNGYQPNYHAVNIVGYSNAQGVDYWIVRNSWDTNWGDNGYGYFAANIDLMMIEEYPYVVIL
CPM ± S.D. ([4]; antigen 10 μg/ml): 920 ± 15 CPM
S.I. ([4]; antigen 10 μg/ml): 0.9
CPM ± S.D. ([4]; antigen 30 μg/ml): 2122 ± 93 CPM
S.I. ([4]; antigen 30 μg/ml): 2.0
CPM ± S.D. ([4]; antigen 100 μg/ml): 1492 ± 13 CPM
S.I. ([4]; antigen 100 μg/ml): 1.4
IgE binding in direct ELISA [3, 6]: All samples did contain IgE

B5: Der p II: Group II protein allergen of Dermatophagoides pteronyssinus, immunoaffinity purified native form (protein)
chain: DQVDVKDCANHEIKKVLVPGCHGSEPCIIHRGKPFQLEAVFEANQNTKTAKIEIKASIDGLEVDVPGIDPNACHYMKCPLVKGQQYDIKYTWNVPKIAPKSENVVVTVKVMGDDGVLACAIATHAKIRD
CPM ± S.D. ([4]; antigen 10 μg/ml): 1113 ± 35 CPM
S.I. ([4]; antigen 10 μg/ml): 1.0
CPM ± S.D. ([4]; antigen 30 μg/ml): 2104 ± 43 CPM
S.I. ([4]; antigen 30 μg/ml): 2.0
CPM ± S.D. ([4]; antigen 100 μg/ml): 1057 ± 27 CPM
S.I. ([4]; antigen 100 μg/ml): 1.0
IgE binding in direct ELISA [3, 6]: All samples did contain IgE
IgE binding in direct ELISA [3, 5]: good binding

B7: biochemically purified Der f I: Group I protein allergen of Dermatophagoides farinae, immunoaffinity purified native form (protein)
chain: TSACRINSVNVPSELDLRSLRTVTPIRMQGGCGSCWAFSGVAATESAYLAYRNTSLDLSEQELVDCASQHGCHGDTIPRGIEYIQQNGVVEERSYPYVAREQRCRRPNSQHYGISNYCQIYPPDVKQIREALTQTHTAIAVIIGIKDLRAFQHYDGRTIIQHDNGYQPNYHAVNIVGYGSTQGDDYWIVRNSWDTTWGDSGYGYFQAGNNLMMIEQYPYVVIM
IgE binding in direct ELISA [3, 5]: binding

More lines, now with the values ahead:

IgE binding in direct ELISA [3, 5]: good binding
B2: rDer p II: recombinant Der p II expressed in E. coli as His6 fusion (protein)
chain: MGHHHHHHEFDQVDVKDCANHEIKKVLVPGCHGSEPCIIHRGKPFQLEAVFEANQNTKTAKIEIKASIDGLEVDVPGIDPNACHYMKCPLVKGQQYDIKYTWNVPKIAPKSENVVVTVKVMGDDGVLACAIATHAKIRD

IgE binding in direct ELISA [3, 5]: no detectable binding
B3: recombinant Der f I: recombinant Der f I expressed in E. coli as His6 fusion (protein)
chain: MGHHHHHHEFTSACRINSVNVPSELDLRSLRTVTPIRMQGGCGSCWAFSGVAATESAYLAYRNTSLDLSEQELVDCASQHGCHGDTIPRGIEYIQQNGVVEERSYPYVAREQRCRRPNSQHYGISNYCQIYPPDVKQIREALTQTHTAIAVIIGIKDLRAFQHYDGRTIIQHDNGYQPNYHAVNIVGYGSTQGDDYWIVRNSWDTTWGDSGYGYFQAGNNLMMIEQYPYVVIM

IgE binding in direct ELISA [3, 5]: binding
B6: recombinant Der f II: recombinant Der f II expressed in E. coli as His6 fusion (protein)
chain: MGHHHHHHEFDQVDVKDCANNEIKKVMVDGCHGSDPCIIHRGKPFTLEALFDANQNTKTAKTEIKASLDGLEIDVPGIDTNACHFMKCPLVKGQQYDAKYTWNVPKIAPKSENVVVTVKLVGDNGVLACAIATHAKIRD
